Experiment [1] concerns the target T1, MERS-CoV trimeric S protein (amino acids 13-1296) with T4 foldon, histidine tag and strep-tag (MERS-CoV, UniProt K9N5Q8 16-1293). Put plainly: ELISA on coated S-trimeric antigen, anti-human IgG-HRP [Human IgG1, NT-193]. A general note: In an ELISA, binding on a coated surface is turned into a signal by an enzyme label.
For experiment [2], the target named is T1, MERS-CoV trimeric S protein (amino …). Kind of experiment: ELISA on coated S-trimeric antigen, anti-human IgG-HRP [Human IgG3, NT-193].
The target is the same in experiment [3]. Kind of experiment: ELISA on coated S-trimeric antigen, anti-human IgG-HRP [Human IgG1, NT-108].

B1: NT-193 (recombinant human IgG1/kappa antibody) (antibody, V domains shown)
VH: EVQLQQWGAGLLKPSETLSLTCAVYGGSFSGYYWSWIRQPPGKGLEWIGEINHSGSTNYNPSLKSRVTISVDTSKNQFSLKLSSVTAADTAVYYCARGWDLDYYYGMDVWGQGTTVTVSS
VL: DIRMTQSPSAMSASVGDRVTVTCRASQGIGNYLAWFQLKPGKVPKRLIYAASSLQSGVPARFSGGGSGTEFTLTISSLQPEDFATYYCLQHGFLPWTFGQGTKLEIK
Turning to B1, the binding result in experiment [1] is reported as “no binding (tested: 1000 ng/ml)”.

B2: NT-193, human IgG3 subclass (antibody, V domains shown)
VH: EVQLQQWGAGLLKPSETLSLTCAVYGGSFSGYYWSWIRQPPGKGLEWIGEINHSGSTNYNPSLKSRVTISVDTSKNQFSLKLSSVTAADTAVYYCARGWDLDYYYGMDVWGQGTTVTVSS
VL: DIRMTQSPSAMSASVGDRVTVTCRASQGIGNYLAWFQLKPGKVPKRLIYAASSLQSGVPARFSGGGSGTEFTLTISSLQPEDFATYYCLQHGFLPWTFGQGTKLEIK
For the molecule B2, the binding result in experiment [2] is “no binding (tested: 1000 ng/ml)”.

B3: NT-108 (recombinant human IgG1/kappa antibody) (antibody, V domains shown)
VH: EVQLQQSGPGLVKPSQTLSLTCSISGDSVSSNSAAWNWIRQSPSRGLEWLGRTYYRSKWYNDYAGTVKSRIAINPDTSKNQFSLHLNSVTPEDTAVYFCARVISVAGYAFDIWGQGTMVTVSS
VL: EIVLTQSPGTLSLSPGERATLSCRASQSVSSTFLAWYQQKPGQAPRLLIYGASYMATGIPDRFSGSGSGTDFTLTISRLEPEDFAVYYCQQYGSSLTFGGGTKLEIK
Consider B3, for which the binding result in experiment [3] is given as “no binding (tested: 1000 ng/ml)”.

The record behind these values is US20240287161A1 (NATIONAL UNIVERSITY CORPORATION TOTTORI UNIVERSITY, published 2024).
